Reference: patent publication CN117858904A (dated 2024)

Legend:
[1] = target: T1, 食蟹猴CD47抗原 cynoCD47(ARCO), Cynomolgus/Rhesus CD47 protein, Fc Tag, cat. CD7-C5252 (cynomolgus monkey / rhesus monkey); assay: BLI (Octet Red384), as in Example 3, cynoCD47-Fc on AR2G sensor, antibody as analyte, mean of three measurements
T1 construct: Commercial protein

[2] = target: T2, 人PD-L1抗原 (human PD-L1 antigen) (human, UniProt Q9NZQ7 19-238, limits assumed); assay: BLI (Octet Red384), as in Example 3, human PD-L1 antigen on AR2G sensor, antibody as analyte, mean of three measurements
T2 construct: also called 专有PD-L1抗原

[3] = target: 人CD47抗原 CD47-FcLama (human CD47 antigen) (human, UniProt Q08722 19-139); assay: BLI (Octet Red384), CD47-FcLama covalently on AR2G sensor, antibody as analyte (68.9, 34.4, 17.2 nM), 1:1 global fit, mean of three measurements
Sequence of 人CD47抗原 CD47-FcLama (human CD47 antigen) (Q08722 19-139): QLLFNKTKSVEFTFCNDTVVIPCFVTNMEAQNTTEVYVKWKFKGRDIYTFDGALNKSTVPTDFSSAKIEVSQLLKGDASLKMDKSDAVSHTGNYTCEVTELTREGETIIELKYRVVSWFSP

T2 sequence (Q9NZQ7 19-238 limits assumed): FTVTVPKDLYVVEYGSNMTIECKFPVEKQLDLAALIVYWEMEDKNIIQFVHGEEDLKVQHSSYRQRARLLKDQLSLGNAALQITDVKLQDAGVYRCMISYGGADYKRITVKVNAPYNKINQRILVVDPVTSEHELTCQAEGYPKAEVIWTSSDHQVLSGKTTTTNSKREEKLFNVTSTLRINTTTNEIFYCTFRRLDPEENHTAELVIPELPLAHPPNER

- Kd [1]: 57 nM
- Kd [2]: 2.54 nM
- Kd [3]: 82.5 nM
B1: 双特异性抗体09-001 (bispecific antibody 09-001, binds CD47 and PD-L1, common light chain) (bispecific antibody, human IgG1, lambda, L234A L235A)
heavy 1: not shown
light: QTVVTQEPSLSVSPGGTVTLTCGLSSGTVTAINYPGWYQQTPGQAPRTLIYNTNTRHSGVPDRFSGSISGNKAALTITGAQAEDEADYYCALYMGNGGHMFGGGTKLTVLGQPKAAPSVTLFPPSSEELQANKATLVCLISDFYPGAVTVAWKADSSPVKAGVETTTPSKQSNNKYAASSYLSLTPEQWKSHRSYSCQVTHEGSTVEKTVAPTECS
heavy 2: EVQLVESGGGVVRPGGSLRLSCAASGFTFDDYAMSWVRQAPGKGLEWVSDISWSGSNTNYADSVKGRFTISRDNAKNSLYLQMNSLRAEDTALYHCARAPLLLAMTFGVGSWGQGTLVTVSSASTKGPSVFPLAPSSKSTSGGTAALGCLVKDYFPEPVTVSWNSGALTSGVHTFPAVLQSSGLYSLSSVVTVPSSSLGTQTYICNVNHKPSNTKVDKKVEPKSCDGPGGTCPPCPAPEAAGGPSVFLFPPKPKDTLMISRTPEVTCVVVDVSHEDPEVKFNWYVDGVEVHNAKTKPREEQYNSTYRVVSVLTVLHQDWLNGKEYKCKVSNKALPAPIEKTISKAKGQPREPQVCTLPPSREEMTKNQVSLSCAVKGFYPSDIAVEWESNGQPENNYKTTPPVLDSDGSFFLVSKLTVDKSRWQQGNVFSCSVMHEALHNHYTQKSLSLSPGK
